B1: TPR t1 (parent)
chain: GACCAAUCUGCCCUCAGAGCUCGAGAACAUCUUCGGAUGCAGAGGAGGCAGGCUUCGGUGGCGCGAUAGCGCCAACGUCCUCAACCUCCAAUGCAUCCCACCACAUGAUGAUGCCUGAAGAGCCUUGGUUUUUUG

The source of these data is the RNAGym collection of RNA variant scans (doi:10.1073/pnas.2313332121).

Variants of B1 are the subject of this data set. Briefly: polymerase ribozyme fitness, log enrichment relative to wild type (log ratio); higher = more active; in vitro selection for triplet polymerase activity. In a few lines: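 To select mutant libraries of each subunit of a heterodimeric triplet polymerase ribozyme, built by PCR and transcribed, each was annealed with a biotinylated primer, partner subunit and triplets, then incubated frozen at −7 °C. Extended constructs were gel-excised, captured on streptavidin beads and amplified by RT-PCR, in one round carried out in triplicate. Illumina sequencing of input and output libraries kept genotypes with ≥10 input reads and ≥1 read per output. Fitness is the base-2 logarithm of genotype enrichment relative to wild-type enrichment, from inverse-variance-weighted replicate averages.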
With A50U G61C G113U, the “polymerase ribozyme fitness (log ratio)” value is -5.56.
Then G52A C62A C123A, with -1.42.
Consider G48U G57A, for which the “polymerase ribozyme fitness (log ratio)” value is -1.01.
Turning to A37G C64U C88U A121U, the “polymerase ribozyme fitness (log ratio)” value is -0.585.
For the variant G17C C40U A43U U130G, the “polymerase ribozyme fitness (log ratio)” value was -3.78.
Consider C13G G71A, for which the “polymerase ribozyme fitness (log ratio)” value is -2.22.
Under G42A G45U C85A A111U stands -5.93.
Under U81G U129A stands -5.4; under C12G G61C C104U C115G U133C, -5.69.
Then C12G U21A G77C A84U, with -1.73.
G48A U112A U125G G127C: the “polymerase ribozyme fitness (log ratio)” value was -1.12.
Regarding C13A A121C G128C, the “polymerase ribozyme fitness (log ratio)” value was -1.87.
Then U7A C13U C15U G44U U59C G77U, with -2.18.
Then G47U U55C C56A C73G, with -4.04.
In the case of C13G G42U C49U G61U, the “polymerase ribozyme fitness (log ratio)” value is -3.55.
Under A24G G42U G60U C88G A121G stands -1.74; under C13G C85G U112A G120C, -1.17.
As to A66U G71C, the “polymerase ribozyme fitness (log ratio)” value is -3.02.
Then G47A G69U G77C C99U C114G, with -3.2; and G47A C88U, with -0.911.
Then C40A U92G C123G, with -1.39.
Under U7C G57A stands -0.108; under G60A U106A, -0.15; under G60A U106G, -0.897.
With C56U U92A, the “polymerase ribozyme fitness (log ratio)” value was -2.86.
Under A6U A46U G110U stands -2.57.
Under A18G G48A U116G stands -3.25; under G39U C88U C94U U106G A121C, -0.0673; under C4G A90U A100C C124U U132C, -4.88.
Under C28G G63U stands -4.26; under A27G G61C C88G G128A, -7.26.
On to U9A G19C A41U G63C, for which the “polymerase ribozyme fitness (log ratio)” value was -3.34.
As for U14G A90C, the “polymerase ribozyme fitness (log ratio)” value is -3.4.
Then G36A C72U, with -1.29; and U7G A46C C97U G120U G127U, with 0.436; and U78C C88A, with -0.513.
As to G61A A84U G117A, the “polymerase ribozyme fitness (log ratio)” value is -1.64.
Then C31U C72G, with -4.16; and A91G C98U, with -1.4.
On to A95C G128C, for which the “polymerase ribozyme fitness (log ratio)” value is -2.12.
For A37C G61U C73U, the “polymerase ribozyme fitness (log ratio)” value is -1.35.
C4A G10A C53G G60U C70U A74U C123A U131C: the “polymerase ribozyme fitness (log ratio)” value is -1.36.
Then C8G C101G G128U, with -3.26; and C4U G35U C62U C98A C123G, with -2.75.
For U9G C15G U81A U109G G127C, the “polymerase ribozyme fitness (log ratio)” value was -5.35.
As to A18U G44U C88G C89A, the “polymerase ribozyme fitness (log ratio)” value is -2.55.
Under U9C C13G stands 0.844; under A75U A95C U116C U125C, -3.04.
Under C79A G127U stands -2.57; under C64U C101A, -1.22; under A6U A26U, -3.54.
Take A26G G120A: the “polymerase ribozyme fitness (log ratio)” value was -0.696.
Consider G52A C56A U106A, for which the “polymerase ribozyme fitness (log ratio)” value is -1.08.
Then G36A G58C U116G, with -3.49; and C98U A105G C114G C115A G135U, with -7.98.
For U32C G42U, the “polymerase ribozyme fitness (log ratio)” value was -2.17.
In the case of C20A C89U U130A, the “polymerase ribozyme fitness (log ratio)” value was -3.54.
Then G10U C53G C70U C86U A119G, with -0.267; and C82U C88A, with -0.557.
As for C49U C80G, the “polymerase ribozyme fitness (log ratio)” value is -5.44.
On to A84G G93U U125G, for which the “polymerase ribozyme fitness (log ratio)” value was -2.63.
Then C64U G135C, with 0.469; and G69C U126A, with -3.12.
Under U92A U112C A121C stands -0.365.
As for G10C U14C C15U C94U C97U U112A, the “polymerase ribozyme fitness (log ratio)” value was -1.07.
Then C12A C62A C98A, with -6.54; and C13G C28U, with -3.35; and A29G G45C U106A, with -1.67.
For the variant A37G G60A, the “polymerase ribozyme fitness (log ratio)” value is -1.03.
Under C11G G36A G47C G117A U129A stands -4.45; under C20U G42A A91C, -4.6; under U54C G61C C73A G93U, -2.61.
Then U9G G35U, with -4.99.
Under C13U C22G A41U U78G U81C G122A stands -4.41.
In the case of C12A C40U A111C U131A, the “polymerase ribozyme fitness (log ratio)” value is -0.623.
Under G10A A16U A66C C88A U92C G120U stands -3.94.
U9A G10U G44U G60A C89G G127C: the “polymerase ribozyme fitness (log ratio)” value is -2.63.
With G44A C104U, the “polymerase ribozyme fitness (log ratio)” value is -0.855.
Under A6G A111U stands -2.51; under A2C G110C, -6.21; under C64U U106G G120C, -0.96.
With G44A A90G C104U, the “polymerase ribozyme fitness (log ratio)” value is -0.158.
Regarding A37U C88U, the “polymerase ribozyme fitness (log ratio)” value is -0.319.
